# Measurements taken from PMC3983062.
# Target: RRV ORF45 (R45), as expressed in RRV-infected rhesus fibroblasts (Rhesus monkey rhadinovirus (RRV), strain H26-95) (UniProt Q9J2K2)
# Experiment: FRET or BRET; filter-based processed FRET (PFRET) on fixed RRV-infected RhF stained with labelled antibodies (Alexa488 donor, Alexa555 acceptor); regions of interest in the nuclei
row,Substance,"r (distance between the fluorophores, from FRET) [nm]"
1,"RSK2 (p90 ribosomal S6 kinase 2), endogenous in rhesus fibroblasts (natural protein)",4.7
2,"pERK2 (phosphorylated, activated ERK2), endogenous in rhesus fibroblasts (from UniProt F7ECR3 1-360) (natural protein)",4.5
